Where two headings read alike, the source gives them in different places.
Experiments:
[1] = target: AMOT PPxY3 (Homo sapiens) (UniProt Q4VCS5); conditions: cited from earlier work
[2] = target: AMOT PPxY1 A112K mutant peptide (UniProt Q4VCS5); test: fluorescence polarisation; 1 nM Oregon Green-labelled PPxY peptide, 2-fold dilutions of WW domain; 20 mM Tris pH 7.5, 150 mM NaCl, 0.5 mM TCEP; 26 °C (legend: 25 °C)
[3] = target: AMOT PPxY1 peptide (residues 100-114), Oregon Green 488-labelled (UniProt Q4VCS5); test: as above
[4] = target: AMOT PPxY2 P239L mutant peptide (UniProt Q4VCS5); test: as above
[5] = target: AMOT PPxY1 E104K/E105K mutant peptide (UniProt Q4VCS5); test: as above
[6] = target: AMOT PPxY1 peptide (residues 100-114), Oregon Green 488-labelled (UniProt Q4VCS5); test: as above; remark: listed apart in the source
AMOT(1-300)-ALEXA488 = AMOT(1-300)-ALEXA488 (UniProt Q4VCS5); test: fluorescence polarisation
AMOT(1-300)-ALEXA488, sequence (Q4VCS5 1-300): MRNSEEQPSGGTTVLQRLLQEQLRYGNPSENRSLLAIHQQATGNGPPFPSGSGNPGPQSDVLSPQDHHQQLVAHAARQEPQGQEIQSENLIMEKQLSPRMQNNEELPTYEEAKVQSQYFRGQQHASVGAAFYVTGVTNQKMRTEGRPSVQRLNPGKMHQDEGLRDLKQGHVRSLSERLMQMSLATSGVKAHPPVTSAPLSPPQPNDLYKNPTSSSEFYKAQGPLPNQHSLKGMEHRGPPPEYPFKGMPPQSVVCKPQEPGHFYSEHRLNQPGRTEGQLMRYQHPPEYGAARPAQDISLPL

KIBRA WW1-WW2, sequence (Q8IX03 6-86): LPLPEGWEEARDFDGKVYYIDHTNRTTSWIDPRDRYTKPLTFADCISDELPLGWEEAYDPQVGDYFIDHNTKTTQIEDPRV

KIBRA WW1-WW2 (from UniProt Q8IX03)
Kd [1]: 0.096 µM

NEDD4L WW3 domain (domain or fragment)
Kd [2]: 40 µM | Kd [3]: 4.5 µM | fold reduction of binding against wt PPxY2 [4]: 2.8 fold | Kd [5]: 31 µM | Kd [6]: 4.8 µM

full-length recombinant NEDD4L (isoform 2) (enzyme)
Kd (AMOT(1-300)-ALEXA488): 2.7 µM

From PMC8368996, “Interactions between AMOT PPxY motifs and NEDD4L WW domains function in HIV-1 release” (The Journal of Biological Chemistry, 2021)
